Experiment in all cases: scFv ELISA
(In general: In an ELISA, binding on a coated surface is turned into a signal by an enzyme label.)

In experiment [1] the target is T1, Peptide 8: Biotin-AEAAAKEAAAKEAAAKEAAAKAAA-Tyr-acid (N-terminal biotin; C-terminal acid; no PC).
T1 construct: control peptide without PC
T1 peptide: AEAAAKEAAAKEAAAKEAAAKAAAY
The essentials:
(§1)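 Bound scFv was read as OD450 after HRP–anti-V5 detection, TMB development and HCl stop. PPE with BSA was incubated 1 h at RT on BSA-blocked wells coated overnight at 4° C. with peptide, or on streptavidin wells loaded 1 h with biotinylated PC-peptides at 1 μg/mL.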

In experiment [2] the target is T2, Peptide 4: Biotin-AGGGGSGGGGSGGGGSAAA-Tyr-acid (N-terminal biotin; C-terminal acid; no PC).
T2 construct: control peptide without PC
T2 peptide: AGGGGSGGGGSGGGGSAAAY
The essentials: as §1

In experiment [3] the target is Peptide 5: Biotin-…-[Tyr(PC)]-acid.
The target in another experiment is BSA (UniProt P02769).
Experiment [4] has as its target Peptide 1: Biotin-…-[Tyr(PC)]-acid.

BSA, sequence (P02769 25-607 limits assumed): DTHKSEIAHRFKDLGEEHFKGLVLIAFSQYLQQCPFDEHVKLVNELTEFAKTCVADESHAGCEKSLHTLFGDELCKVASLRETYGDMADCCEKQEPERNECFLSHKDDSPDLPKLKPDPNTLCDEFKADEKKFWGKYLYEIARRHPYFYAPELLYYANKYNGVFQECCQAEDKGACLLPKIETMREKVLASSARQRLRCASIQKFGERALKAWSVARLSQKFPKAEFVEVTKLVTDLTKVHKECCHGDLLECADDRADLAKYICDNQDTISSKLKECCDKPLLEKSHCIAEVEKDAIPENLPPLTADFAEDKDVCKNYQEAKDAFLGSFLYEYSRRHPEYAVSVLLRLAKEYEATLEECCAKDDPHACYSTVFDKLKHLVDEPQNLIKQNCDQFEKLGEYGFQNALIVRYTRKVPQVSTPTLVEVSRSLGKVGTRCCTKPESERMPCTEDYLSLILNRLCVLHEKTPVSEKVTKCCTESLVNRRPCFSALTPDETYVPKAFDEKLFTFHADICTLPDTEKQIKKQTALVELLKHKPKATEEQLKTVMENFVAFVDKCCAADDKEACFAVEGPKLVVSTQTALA

B1: PcOxP_DB01_E02 (scFv, V domains shown)
VH: EVQLLESGGGLVQPGGSLRLSCAASGFTFSDYYMEWVRQAPGKGLEWVAASRNKGNDYTTEYADSVKGRFTISRDNSKNTLYLQMNSLRAEDTAVYYCARDYYGSSYWYFDVWGQGTLVTVSS
VL: DIVMTQSPDSLAVSLGERATINCTASESLYSSKHKVHYLAWYQQKPGQPPKLLIYGASNRYIGVPDRFSGSGSGTDFTLTISSLQAEDVAVYYCAQFYSYPLTFGGGTKVEIK
notes: scFv in periplasmic extract
Turning to B1, the OD450 in experiment [1] was 0.05 OD450; in experiment [2] it was 0.05 OD450; in experiment [3], 1.02 OD450; in the experiment with BSA, 0.07 OD450; in experiment [4] it was 0.46 OD450.

B2: PcOxP_DB01_F08 (scFv, V domains shown)
VH: EVQLLESGGGLVQPGGSLRLSCAASGFTFSDGYMEWVRQAPGKGLEWVAASRNKWNDYTTEYADSVKGRFTISRDNSKNTLYLQMNSLRAEDTAVYYCARDYYGSSYWYFDVWGQGTLVTVSS
VL: DIVMTQSPDSLAVSLGERATINCTASESLYSSKHKVHYLAWYQQKPGQPPKLLIYGASNRYSGVPDRFSGSGSGTDFTLTISSLQAEDVAVYYCAQFYSYPLTFGGGTKVEIK
notes: scFv in periplasmic extract
For the molecule B2, the OD450 in experiment [1] is 0.04 OD450; in experiment [2], 0.04 OD450; in experiment [3] it was 1.22 OD450; with BSA it was 0.06 OD450; in experiment [4], 0.52 OD450.

B3: PcOxP_DB01_F06 (scFv, V domains shown)
VH: EVQLLESGGGLVQPGGSLRLSCAASGDTFSDFYMEWVRQAPGKGLEWVAASRNKANDYTTEYADSVKGRFTISRDNSKNTLYLQMNSLRAEDTAVYYCARDYYGSSYWYFDVWGQGTLVTVSS
VL: DIVMTQSPDSLAVSLGERATINCKSSQSLYYSSNKKNYLAWYQQKPGQPPKLLIYGASNRYGGVPDRFSGSGSGTDFTLTISSLQAEDVAVYYCAQFYRYPLTFGGGTKVEIK
notes: scFv in periplasmic extract
As to B3, the OD450 in experiment [1] amounted to 0.04 OD450; in experiment [2], 0.04 OD450; in experiment [3], 0.53 OD450; with BSA it was 0.07 OD450; in experiment [4], 0.12 OD450.

B4: PcOxP_DB01_E09 (scFv, V domains shown)
VH: EVQLLESGGGLVQPGGSLRLSCAASGNTFSDFYMEWVRQAPGKGLEWVAASRNKANDYTTEYADSVKGRFTISRDNSKNTLYLQMNSLRAEDTAVYYCARDYYGSSYWYFDVWGQGTLVTVSS
VL: DIVMTQSPDSLAVSLGERATINCTASESLYSSKHKVHYLAWYQQKPGQPPKLLIYGASNRYIGVPDRFSGSGSGTDFTLTISSLQAEDVAVYYCANFYSYPLTFGGGTKVEIK
notes: scFv in periplasmic extract
In the case of B4, the OD450 stood at 0.04 OD450 in experiment [1]; 0.04 OD450 in experiment [2]; 1.26 OD450 in experiment [3]; 0.06 OD450 in the experiment with BSA; 0.77 OD450 in experiment [4].

B5: PcOxP_DB01_G02 (scFv, V domains shown)
VH: EVQLLESGGGLVQPGGSLRLSCAASGFLFSDFYMEWVRQAPGKGLEWVAASRNKANDYTTTYADSVKGRFTISRDNSKNTLYLQMNSLRAEDTAVYYCARDYYGSHYWYFDVWGQGTLVTVSS
VL: DIVMTQSPDSLAVSLGERATINCTASESLYSSKHKVHYLAWYQQKPGQPPKLLIYGASNREIGVPDRFSGSGSGTDFTLTISSLQAEDVAVYYCAQFYFYPLTFGGGTKVEIK
notes: scFv in periplasmic extract
Regarding B5, the OD450 in experiment [1] was 0.04 OD450; in experiment [2], 0.05 OD450; in experiment [3], 1.2 OD450; in the experiment with BSA, 0.06 OD450; in experiment [4] it was 0.82 OD450.

B6: PcOxP_DB01_G03 (scFv, V domains shown)
VH: EVQLLESGGGLVQPGGSLRLSCAASGFTFSDGYMEWVRQAPGKGLEWVAASRNKANDYTTEYADSVKGRFTISRDNSKNTLYLQMNSLRAEDTAVYYCARDYYGSSYWYFDVWGQGTLVTVSS
VL: DIVMTQSPDSLAVSLGERATINCTASTSLYSSKHKVHYLAWYQQKPGQPPKLLIYGASNRYIGVPDRFSGSGSGTDFTLTISSLQAEDVAVYYCAQFYTYPLTFGGGTKVEIK
notes: scFv in periplasmic extract
In the case of B6, the OD450 in experiment [1] came out at 0.05 OD450; in experiment [2], 0.05 OD450; in experiment [3], 0.94 OD450; in the experiment with BSA, 0.07 OD450; in experiment [4] it was 0.43 OD450.

B7: PcOxP_DB01_E03 (scFv, V domains shown)
VH: EVQLLESGGGLVQPGGSLRLSCAASGFGFSDFYMEWVRQAPGKGLEWVGASRNKHNDYTTEYADSVKGRFTISRDNSKNTLYLQMNSLRAEDTAVYYCARDYYGSSYWYFDVWGQGTLVTVSS
VL: DIVMTQSPDSLAVSLGERATINCKSSESVYSSKHKKHYLAWYQQKPGQPPKLLIYGASNRYIGVPDRFSGSGSGTDFTLTISSLQAEDVAVYYCAQFYSYPLTFGGGTKVEIK
notes: scFv in periplasmic extract
For the molecule B7, the OD450 in experiment [1] amounted to 0.05 OD450; in experiment [2], 0.05 OD450; in experiment [3] it was 1.54 OD450; in the experiment with BSA, 0.08 OD450; in experiment [4], 0.86 OD450.

B8: PcOxP_DB01_G04 (scFv, V domains shown)
VH: EVQLLESGGGLVQPGGSLRLSCAASGFTFSDGYMEWVRQAPGKGLEWVAASRNKANDYTTEYADSVKGRFTISRDNSKNTLYLQMNSLRAEDTAVYYCARDYYGSSYWYFDVWGQGTLVTVSS
VL: DIVMTQSPDSLAVSLGERATINCTASESLYSSKHKVHYLAWYQQKPGQPPKLLIYGASNRYSGVPDRFSGSGSGTDFTLTISSLQAEDVAVYYCAQFYSYPLTFGGGTKVEIK
notes: scFv in periplasmic extract
On to B8, for which the OD450 in experiment [1] was 0.07 OD450; in experiment [2], 0.05 OD450; in experiment [3], 1.01 OD450; in the experiment with BSA it was 0.07 OD450; in experiment [4], 0.56 OD450.

B9: PcOxP_DB01_F11 (scFv, V domains shown)
VH: EVQLLESGGGLVQPGGSLRLSCAASGFTFSSYYMEWVRQAPGKGLEWVAASRNKANDYTTEYADSVKGRFTISRDNSKNTLYLQMNSLRAEDTAVYYCARDYYGSSYWYYDVWGQGTLVTVSS
VL: DIVMTQSPDSLAVSLGERATINCTASESLYSSKHKVHYLAWYQQKPGQPPKLLIYGASNRYIGVPDRFSGSGSGTDFTLTISSLQAEDVAVYYCAQFYSYPLTFGGGTKVEIK
notes: scFv in periplasmic extract
For the molecule B9, the OD450 is 0.05 OD450 in experiment [1]; 0.07 OD450 in experiment [2]; 1.92 OD450 in experiment [3]; 0.07 OD450 with BSA; 1.55 OD450 in experiment [4].

B10: PcOxP_DB01_F07 (scFv, V domains shown)
VH: EVQLLESGGGLVQPGGSLRLSCAASGDTFSDFYLEWVRQAPGKGLEWVAASRNKANGYTTEYADSVKGRFTISRDNSKNTLYLQMNSLRAEDTAVYYCARDYYHSSYWYFDVWGQGTLVTVSS
VL: DIVMTQSPDSLAVSLGERATINCTASESLYSSKHKVHYLAWYQQKPGQPPKLLIYGASNRYIGVPDRFSGSGSGTDFTLTISSLQAEDVAVYYCAHFYSYPLTFGGGTKVEIK
notes: scFv in periplasmic extract
For the molecule B10, the OD450 in experiment [1] is 0.04 OD450; in experiment [2], 0.04 OD450; in experiment [3] it was 0.81 OD450; with BSA it was 0.06 OD450; in experiment [4], 0.31 OD450.

B11: PcOxP_DB01_F03 (scFv, V domains shown)
VH: EVQLLESGGGLVQPGGSLRLSCAASGFTFSDSYMEWVRQAPGKGLEWVAASRNKYNDYTTEYADSVKGRFTISRDNSKNTLYLQMNSLRAEDTAVYYCARDYYGSSYWYFDVWGQGTLVTVSS
VL: DIVMTQSPDSLAVSLGERATINCTASESLYSSKHKVHYLAWYQQKPGQPPKLLIYGASNRYIGVPDRFSGSGSGTDFTLTISSLQAEDVAVYYCAQFYSYPLTFGGGTKVEIK
notes: scFv in periplasmic extract
For B11, the OD450 was 0.08 OD450 in experiment [1]; 0.07 OD450 in experiment [2]; 1.41 OD450 in experiment [3]; 0.08 OD450 with BSA; 0.8 OD450 in experiment [4].

B12: PcOxP_DB01_F12 (scFv, V domains shown)
VH: EVQLLESGGGLVQPGGSLRLSCAASGFTHSDFYMEWVRQAPGKGLEWVAASRNKANGYTTEYADSVKGRFTISRDNSKNTLYLQMNSLRAEDTAVYYCARDYYGSSYWYFDSWGQGTLVTVSS
VL: DIVMTQSPDSLAVSLGERATINCTASESLYSSKHKVHYLAWYQQKPGQPPKLLIYGASNRYVGVPDRFSGSGSGTDFTLTISSLQAEDVAVYYCAQFYSYPLTFGGGTKVEIK
notes: scFv in periplasmic extract
As to B12, the OD450 in experiment [1] came to 0.05 OD450; in experiment [2] it was 0.05 OD450; in experiment [3], 1.43 OD450; with BSA it was 0.06 OD450; in experiment [4], 0.76 OD450.

B13: PcOxP_DB01_F01 (scFv, V domains shown)
VH: EVQLLESGGGLVQPGGSLRLSCAASGFPFSDFYMEWVRQAPGKGLEWVAASRNKANDYTTEYADSVKGRFTISRDNSKNTLYLQMNSLRAEDTAVYYCARDYYGSPYWYFDVWGQGTLVTVSS
VL: DIVMTQSPDSLAVSLGERATINCTASESVYSSKNKKHYLAWYQQKPGQPPKLLIYGASNRYIGVPDRFSGSGSGTDFTLTISSLQAEDVAVYYCAQFYTYPLTFGGGTKVEIK
notes: scFv in periplasmic extract
Take B13: the OD450 in experiment [1] came out at 0.05 OD450; in experiment [2] it was 0.05 OD450; in experiment [3], 1.78 OD450; with BSA, 0.08 OD450; in experiment [4], 0.6 OD450.

B14: PcOxP_DB01_E08 (scFv, V domains shown)
VH: EVQLLESGGGLVQPGGSLRLSCAASGDTFSDFYMEWVRQAPGKGLEWVAASRNKANAYTTEYADSVKGRFTISRDNSKNTLYLQMNSLRAEDTAVYYCARDYYGQSYWYFDVWGQGTLVTVSS
VL: DIVMTQSPDSLAVSLGERATINCTASESLYSSKHKVHYLAWYQQKPGQPPKLLIYGASNRYIGVPDRFSGSGSGTDFTLTISSLQAEDVAVYYCAQFYSYPLTFGGGTKVEIK
notes: scFv in periplasmic extract
As for B14, the OD450 in experiment [1] was 0.04 OD450; in experiment [2], 0.05 OD450; in experiment [3], 0.82 OD450; in the experiment with BSA it was 0.06 OD450; in experiment [4], 0.47 OD450.

B15: PcOxP_DB01_E07 (scFv, V domains shown)
VH: EVQLLESGGGLVQPGGSLRLSCAASGFTFSSYYMEWVRQAPGKGLEWVAASRNKANDYTTEYADSVKGRFTISRDNSKNTLYLQMNSLRAEDTAVYYCARDYYGSSYWYFDVWGQGTLVTVSS
VL: DIVMTQSPDSLAVSLGERATINCTASESLYSSKHKVDYLAWYQQKPGQPPKLLIYGASNRYIGVPDRFSGSGSGTDFTLTISSLQAEDVAVYYCAQFYSYPLTFGGGTKVEIK
notes: scFv in periplasmic extract
With B15, the OD450 was found to be 0.05 OD450 in experiment [1]; 0.05 OD450 in experiment [2]; 1.51 OD450 in experiment [3]; 0.07 OD450 in the experiment with BSA; 0.87 OD450 in experiment [4].
